Results taken from patent US20260201003A1.

B1: anti-CD20 antibody (ocrelizumab variable domains) with IgG2 wildtype constant region (antibody, part only; not given: ocrelizumab variable domains, not shown: another chain or arm of the molecule)
constant: ASTKGPSVFPLAPCSRSTSESTAALGCLVKDYFPEPVTVSWNSGALTSGVHTFPAVLQSSGLYSLSSVVTVPSSNFGTQTYTCNVDHKPSNTKVDKTVERKCCVECPPCPAPPVAGPSVFLFPPKPKDTLMISRTPEVTCVVVDVSHEDPEVQFNWYVDGVEVHNAKTKPREEQFNSTFRVVSVLTVVHQDWLNGKEYKCKVSNKGLPAPIEKTISKTKGQPREPQVYTLPPSREEMTKNQVSLTCLVKGFYPSDIAVEWESNGQPENNYKTTPPMLDSDGSFFLYSKLTVDKSRWQQGNVFSCSVMHEALHNHYTQKSLSLSPGK

Experiments:
[1] = target: FcRn (UniProt P55899); assay: Biacore; FcRn directly immobilized; response at end of injection normalised to the standard
[2] = target: FcγRIIIa V158 (UniProt P08637); assay: Biacore; FcγR captured through anti-His antibody; response at end of injection normalised to the standard
[3] = target: FcγRI (UniProt P12314); assay: as above
[4] = target: FcγRI; assay: as above
[5] = target: Flt3 receptor (human) (UniProt P36888); assay: cell-based or functional assay
Sequence of Flt3 receptor (human) (P36888 27-993): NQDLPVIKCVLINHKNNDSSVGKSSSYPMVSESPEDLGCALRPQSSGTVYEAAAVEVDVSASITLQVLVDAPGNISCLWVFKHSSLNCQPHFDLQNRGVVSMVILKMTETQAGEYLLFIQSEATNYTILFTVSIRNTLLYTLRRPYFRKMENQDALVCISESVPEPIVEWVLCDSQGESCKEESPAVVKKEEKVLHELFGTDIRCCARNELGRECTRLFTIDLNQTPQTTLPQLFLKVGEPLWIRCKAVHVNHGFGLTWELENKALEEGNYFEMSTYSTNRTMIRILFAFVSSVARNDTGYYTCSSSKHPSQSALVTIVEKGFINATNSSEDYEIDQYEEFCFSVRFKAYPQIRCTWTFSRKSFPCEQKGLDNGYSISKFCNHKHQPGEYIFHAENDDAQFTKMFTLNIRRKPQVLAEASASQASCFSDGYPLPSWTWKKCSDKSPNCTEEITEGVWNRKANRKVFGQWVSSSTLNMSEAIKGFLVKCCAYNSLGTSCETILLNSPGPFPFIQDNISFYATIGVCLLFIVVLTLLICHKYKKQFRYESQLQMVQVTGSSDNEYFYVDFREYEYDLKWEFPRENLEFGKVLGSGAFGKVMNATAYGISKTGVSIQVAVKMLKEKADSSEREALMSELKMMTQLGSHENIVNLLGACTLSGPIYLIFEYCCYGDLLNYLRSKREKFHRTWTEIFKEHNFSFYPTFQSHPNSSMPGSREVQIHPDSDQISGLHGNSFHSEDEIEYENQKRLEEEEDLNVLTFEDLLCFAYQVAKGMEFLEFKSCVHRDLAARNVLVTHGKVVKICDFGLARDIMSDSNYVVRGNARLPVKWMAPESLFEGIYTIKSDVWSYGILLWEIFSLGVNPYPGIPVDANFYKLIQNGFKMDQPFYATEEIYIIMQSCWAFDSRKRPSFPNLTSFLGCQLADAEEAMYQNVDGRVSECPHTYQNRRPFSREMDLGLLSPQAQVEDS

Sequence of FcγRI (UniProt P12314) (P12314 16-288 limits assumed): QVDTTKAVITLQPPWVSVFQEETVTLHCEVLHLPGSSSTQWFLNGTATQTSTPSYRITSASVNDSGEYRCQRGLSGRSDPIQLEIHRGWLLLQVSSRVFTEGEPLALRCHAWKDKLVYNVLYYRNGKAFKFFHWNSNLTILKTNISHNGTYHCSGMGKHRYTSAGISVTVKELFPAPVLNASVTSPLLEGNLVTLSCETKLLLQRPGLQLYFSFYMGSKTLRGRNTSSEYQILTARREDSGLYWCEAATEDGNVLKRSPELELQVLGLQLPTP
Sequence of FcRn (P55899 24-297 limits assumed, form in doubt): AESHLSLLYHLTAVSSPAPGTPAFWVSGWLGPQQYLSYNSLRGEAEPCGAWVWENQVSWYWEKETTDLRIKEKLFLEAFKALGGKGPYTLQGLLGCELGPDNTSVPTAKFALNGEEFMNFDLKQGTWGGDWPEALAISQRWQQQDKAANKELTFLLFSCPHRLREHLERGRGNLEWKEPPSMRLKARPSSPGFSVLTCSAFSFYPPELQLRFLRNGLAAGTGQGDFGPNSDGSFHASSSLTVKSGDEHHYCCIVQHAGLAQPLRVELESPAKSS
Sequence of FcγRIIIa V158 (P08637 17-208 F176V limits assumed): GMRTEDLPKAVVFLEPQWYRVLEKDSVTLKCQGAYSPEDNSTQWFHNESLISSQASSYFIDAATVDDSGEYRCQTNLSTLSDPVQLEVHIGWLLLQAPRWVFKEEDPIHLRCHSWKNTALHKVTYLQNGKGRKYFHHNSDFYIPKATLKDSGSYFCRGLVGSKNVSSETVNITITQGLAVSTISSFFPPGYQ

Row | Molecule | relative binding level (%) at 10 ug/ml [1] | relative binding level (%) at 10 ug/ml [2] | relative binding level (%) at 10 ug/ml [3] | relative binding level (%) at 10 ug/ml [4] | EC50 potency, proliferation of OCI-AML5 cells (Cell Titer Glo, 7 days) [5]
1 | anti-CD20 antibody (ocrelizumab variable domains) with IgG1 LALAPG constant region | 95.9% | 1.36% | 1.74% | -0.34% | 
2 | anti-CD20 antibody (ocrelizumab variable domains) with IgG1 NG constant region | 86.7% | 2.12% | 4.5% | 0.06% | 
3 | gCDX-301 (from UniProt P49771 27-179) (ligand) |  |  |  |  | 2.3 pM
4 | anti-CD20 antibody (ocrelizumab variable domains) with IgG4 SP constant region | 66.5% | 3.41% | 70.6% | 14.8% | 
5 | B1 | 99.4% | 3.85% | 2.43% | 179% | 
